Results reported in the supplement of paper PMC10065799, “High-throughput profiling of sequence recognition by tyrosine kinases and SH2 domains using bacterial peptide display” (eLife, 2023).

Legend:
Fyn = Fyn (UniProt P06241); assay: phosphorylation enrichment, bacterial display (enrichment ratio); higher = better substrate or ligand; peptides without Tyr show the background
MERTK = MERTK (UniProt Q12866); assay: as above
EPHB1 = EPHB1 (UniProt P54762); assay: as above
Fer (mouse) = assay: as above
EPHB2 = EPHB2 (UniProt P29323); assay: as above
EPHB2, sequence (P29323 whole entry, looked up): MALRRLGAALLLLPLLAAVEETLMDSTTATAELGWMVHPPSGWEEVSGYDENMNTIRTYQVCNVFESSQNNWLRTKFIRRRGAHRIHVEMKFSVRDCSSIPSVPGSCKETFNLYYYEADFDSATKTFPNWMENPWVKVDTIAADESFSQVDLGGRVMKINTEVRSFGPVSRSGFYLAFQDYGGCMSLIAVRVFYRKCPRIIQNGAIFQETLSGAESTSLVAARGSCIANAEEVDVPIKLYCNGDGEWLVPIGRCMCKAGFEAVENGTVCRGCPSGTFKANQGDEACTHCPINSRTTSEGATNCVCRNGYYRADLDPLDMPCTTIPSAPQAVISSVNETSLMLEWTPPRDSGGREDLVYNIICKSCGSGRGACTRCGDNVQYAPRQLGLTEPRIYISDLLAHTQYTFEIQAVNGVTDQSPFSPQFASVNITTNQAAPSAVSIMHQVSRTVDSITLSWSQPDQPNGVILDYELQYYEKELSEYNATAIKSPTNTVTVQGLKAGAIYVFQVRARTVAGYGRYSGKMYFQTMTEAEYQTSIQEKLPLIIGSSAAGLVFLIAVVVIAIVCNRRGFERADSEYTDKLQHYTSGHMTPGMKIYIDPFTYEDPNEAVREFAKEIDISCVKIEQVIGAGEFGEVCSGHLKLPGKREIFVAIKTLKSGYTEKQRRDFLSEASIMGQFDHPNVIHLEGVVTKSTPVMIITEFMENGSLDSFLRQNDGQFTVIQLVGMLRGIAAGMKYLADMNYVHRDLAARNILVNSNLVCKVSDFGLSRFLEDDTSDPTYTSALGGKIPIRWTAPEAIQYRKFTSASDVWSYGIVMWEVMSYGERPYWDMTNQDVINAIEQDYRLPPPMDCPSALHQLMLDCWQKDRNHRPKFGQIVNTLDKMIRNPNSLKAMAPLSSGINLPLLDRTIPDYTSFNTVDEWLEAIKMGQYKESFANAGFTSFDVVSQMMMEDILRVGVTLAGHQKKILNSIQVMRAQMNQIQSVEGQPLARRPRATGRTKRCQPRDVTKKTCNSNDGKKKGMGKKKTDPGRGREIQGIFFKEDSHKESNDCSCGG

Fes = Fes (UniProt P07332); assay: as above
c-Abl (mouse) = assay: as above
FGFR1 = FGFR1 (UniProt P11362); assay: as above
c-Src = assay: as above
Jak2 = Jak2 (UniProt O60674); assay: as above
Jak2, sequence (O60674 whole entry, looked up): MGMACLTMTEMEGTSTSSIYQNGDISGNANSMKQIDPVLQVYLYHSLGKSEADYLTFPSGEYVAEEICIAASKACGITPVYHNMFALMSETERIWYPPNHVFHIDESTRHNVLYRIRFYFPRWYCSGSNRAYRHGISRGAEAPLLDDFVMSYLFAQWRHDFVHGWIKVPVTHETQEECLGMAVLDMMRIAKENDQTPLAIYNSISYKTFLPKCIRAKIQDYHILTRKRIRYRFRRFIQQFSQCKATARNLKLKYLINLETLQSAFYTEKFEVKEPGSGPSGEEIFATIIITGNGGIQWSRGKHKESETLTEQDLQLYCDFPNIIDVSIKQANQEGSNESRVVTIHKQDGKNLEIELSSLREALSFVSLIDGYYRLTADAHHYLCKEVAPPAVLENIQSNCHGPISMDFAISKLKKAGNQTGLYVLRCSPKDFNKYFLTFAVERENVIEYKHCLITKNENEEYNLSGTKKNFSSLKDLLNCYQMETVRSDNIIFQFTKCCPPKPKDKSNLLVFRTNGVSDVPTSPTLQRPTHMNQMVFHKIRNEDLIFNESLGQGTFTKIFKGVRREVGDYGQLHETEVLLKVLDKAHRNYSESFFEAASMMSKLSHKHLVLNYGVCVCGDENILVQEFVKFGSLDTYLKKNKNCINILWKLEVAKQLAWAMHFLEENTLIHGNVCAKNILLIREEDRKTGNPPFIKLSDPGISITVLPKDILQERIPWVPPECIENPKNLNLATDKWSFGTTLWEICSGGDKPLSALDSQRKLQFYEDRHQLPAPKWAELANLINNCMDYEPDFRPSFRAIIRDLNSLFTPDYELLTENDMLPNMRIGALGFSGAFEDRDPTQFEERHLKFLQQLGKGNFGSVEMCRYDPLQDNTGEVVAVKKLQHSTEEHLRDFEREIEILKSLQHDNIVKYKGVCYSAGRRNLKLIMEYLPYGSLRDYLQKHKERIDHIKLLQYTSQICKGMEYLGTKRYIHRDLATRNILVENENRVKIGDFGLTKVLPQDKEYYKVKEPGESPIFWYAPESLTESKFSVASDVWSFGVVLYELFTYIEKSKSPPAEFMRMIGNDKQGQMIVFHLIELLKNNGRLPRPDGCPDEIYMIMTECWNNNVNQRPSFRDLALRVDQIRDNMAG

Hck = Hck (UniProt P08631); assay: as above
Hck, sequence (P08631 whole entry, looked up): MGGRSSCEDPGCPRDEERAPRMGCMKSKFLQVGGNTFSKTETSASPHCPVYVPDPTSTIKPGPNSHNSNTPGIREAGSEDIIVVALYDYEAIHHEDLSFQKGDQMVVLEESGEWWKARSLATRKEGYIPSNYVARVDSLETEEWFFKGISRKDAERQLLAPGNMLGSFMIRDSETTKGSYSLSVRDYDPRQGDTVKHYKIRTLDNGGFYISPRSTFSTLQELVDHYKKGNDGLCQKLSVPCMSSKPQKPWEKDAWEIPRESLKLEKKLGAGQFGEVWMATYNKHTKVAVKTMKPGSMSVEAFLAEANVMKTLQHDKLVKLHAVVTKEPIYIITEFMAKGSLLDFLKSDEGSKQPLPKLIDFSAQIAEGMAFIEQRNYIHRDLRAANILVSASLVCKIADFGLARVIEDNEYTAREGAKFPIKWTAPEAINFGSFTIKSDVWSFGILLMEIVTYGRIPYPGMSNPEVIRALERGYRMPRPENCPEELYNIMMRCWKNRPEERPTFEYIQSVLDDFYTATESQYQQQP

AncSZ = assay: as above
FGFR3 = FGFR3 (UniProt P22607); assay: as above
FGFR3, sequence (P22607 whole entry, looked up): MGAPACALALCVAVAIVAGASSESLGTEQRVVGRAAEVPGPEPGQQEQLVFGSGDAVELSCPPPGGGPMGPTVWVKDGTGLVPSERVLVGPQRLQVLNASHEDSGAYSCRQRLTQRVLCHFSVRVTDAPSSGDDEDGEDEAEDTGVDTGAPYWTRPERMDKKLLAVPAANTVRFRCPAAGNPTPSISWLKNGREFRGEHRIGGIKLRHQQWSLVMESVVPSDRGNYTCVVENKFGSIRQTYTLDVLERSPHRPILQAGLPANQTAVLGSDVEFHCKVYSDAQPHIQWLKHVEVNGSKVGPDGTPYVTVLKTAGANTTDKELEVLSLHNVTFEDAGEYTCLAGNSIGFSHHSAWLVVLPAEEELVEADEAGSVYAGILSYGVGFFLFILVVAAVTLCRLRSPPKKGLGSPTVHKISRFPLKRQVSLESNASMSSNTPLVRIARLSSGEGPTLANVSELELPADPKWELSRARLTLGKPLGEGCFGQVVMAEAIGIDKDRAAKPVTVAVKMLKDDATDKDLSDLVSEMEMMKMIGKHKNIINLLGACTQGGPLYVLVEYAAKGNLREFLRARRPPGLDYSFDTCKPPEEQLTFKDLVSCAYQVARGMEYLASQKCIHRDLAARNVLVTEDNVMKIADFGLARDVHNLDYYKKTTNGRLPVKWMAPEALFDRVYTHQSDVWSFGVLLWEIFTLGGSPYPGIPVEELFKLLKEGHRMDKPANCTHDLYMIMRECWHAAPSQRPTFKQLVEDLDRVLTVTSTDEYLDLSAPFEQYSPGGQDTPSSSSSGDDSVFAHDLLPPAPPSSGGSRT

Grb2 SH2 = Grb2 SH2 (UniProt P62993); assay: SH2 binding enrichment of the phosphorylated peptide, bacterial display (enrichment ratio); higher = better substrate or ligand; peptides without Tyr show the background
Grb2 SH2, sequence (P62993 whole entry, looked up): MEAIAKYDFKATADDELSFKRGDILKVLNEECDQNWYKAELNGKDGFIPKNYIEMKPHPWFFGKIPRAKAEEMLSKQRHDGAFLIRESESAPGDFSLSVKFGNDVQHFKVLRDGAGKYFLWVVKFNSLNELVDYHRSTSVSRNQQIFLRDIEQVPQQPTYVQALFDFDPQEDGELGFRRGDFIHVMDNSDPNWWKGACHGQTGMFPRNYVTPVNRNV

c-Src SH2 = assay: as above
SHP2-C SH2 = assay: as above
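Throughout, for SH2 binding enrichment of the phosphorylated peptide, bacterial display: peptide library displayed on the E. coli surface as eCPX fusions, selected cells deep-sequenced, score is each peptide's frequency after selection divided by its frequency in the input.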
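Throughout, for phosphorylation enrichment, bacterial display: 11-residue human phosphosite peptides and single-mutation variants displayed on the E. coli surface, counted by deep sequencing, each peptide's frequency after selection divided by its frequency in the unselected input library; frequency after pTyr selection over input frequency; kinase dosed for 20-30% of maximal phosphorylation in three min.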

MERTK, sequence (Q12866 whole entry, looked up): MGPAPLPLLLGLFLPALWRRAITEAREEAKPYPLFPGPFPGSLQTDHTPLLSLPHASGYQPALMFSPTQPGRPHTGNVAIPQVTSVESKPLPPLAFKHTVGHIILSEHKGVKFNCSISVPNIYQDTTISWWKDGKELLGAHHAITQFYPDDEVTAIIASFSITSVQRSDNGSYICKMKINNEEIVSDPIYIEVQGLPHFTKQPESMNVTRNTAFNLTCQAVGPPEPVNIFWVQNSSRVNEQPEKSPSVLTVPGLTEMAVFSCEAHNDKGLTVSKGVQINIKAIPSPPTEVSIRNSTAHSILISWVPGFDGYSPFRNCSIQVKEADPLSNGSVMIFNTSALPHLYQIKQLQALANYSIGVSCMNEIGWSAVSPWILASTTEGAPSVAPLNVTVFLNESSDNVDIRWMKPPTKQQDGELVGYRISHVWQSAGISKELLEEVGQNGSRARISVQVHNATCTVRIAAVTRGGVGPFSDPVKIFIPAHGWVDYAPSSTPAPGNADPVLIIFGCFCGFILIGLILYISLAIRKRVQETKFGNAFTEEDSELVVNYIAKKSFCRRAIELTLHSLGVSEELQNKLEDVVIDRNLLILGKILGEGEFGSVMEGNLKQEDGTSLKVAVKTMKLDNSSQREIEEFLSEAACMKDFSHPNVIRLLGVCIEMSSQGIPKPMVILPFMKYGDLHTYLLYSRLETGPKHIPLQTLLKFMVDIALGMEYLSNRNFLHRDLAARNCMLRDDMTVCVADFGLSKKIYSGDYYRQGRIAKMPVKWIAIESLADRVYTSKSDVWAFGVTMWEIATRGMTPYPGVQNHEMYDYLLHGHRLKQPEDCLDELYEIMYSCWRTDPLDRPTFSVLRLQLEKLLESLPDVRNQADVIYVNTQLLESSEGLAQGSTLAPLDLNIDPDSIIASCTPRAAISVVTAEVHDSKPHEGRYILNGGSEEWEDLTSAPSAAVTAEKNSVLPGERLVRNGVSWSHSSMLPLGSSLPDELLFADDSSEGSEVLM

Row | Sequence | phosphorylation enrichment (Fyn) | phosphorylation enrichment (MERTK) | phosphorylation enrichment (EPHB1) | phosphorylation enrichment (Fer (mouse)) | phosphorylation enrichment (EPHB2) | phosphorylation enrichment (Fes) | phosphorylation enrichment (c-Abl (mouse)) | phosphorylation enrichment (FGFR1) | phosphorylation enrichment (c-Src) | phosphorylation enrichment (Jak2) | phosphorylation enrichment (Hck) | phosphorylation enrichment (AncSZ) | phosphorylation enrichment (FGFR3) | SH2 binding enrichment (Grb2 SH2) | SH2 binding enrichment (c-Src SH2) | SH2 binding enrichment (SHP2-C SH2)
1 | SGASGYSATST [CERT1_Y143] | 0.491 | 0.44 | 0.391 | 0.448 | 0.514 | 0.594 | 0.468 | 0.478 | 0.417 | 0.539 | 0.478 | 0.594 | 0.446 | 0.704 | 0.486 | 0.578
2 | ITQRAYRRHLL [SCN1A_Y1926_I1922T] | 0.444 | 0.585 | 0.427 | 0.403 | 0.417 | 0.557 | 0.547 | 0.442 | 0.622 | 0.573 | 0.457 | 0.63 | 0.48 | 0.69 | 0.404 | 0.585
3 | FRNSLYAPDYS [FAM92A_Y226] | 0.734 | 4.83 | 1.23 | 0.555 | 0.775 | 0.725 | 0.493 | 0.66 | 0.779 | 0.58 | 0.88 | 0.723 | 0.619 | 0.79 | 0.568 | 0.754
4 | ELTAKYLNYYQ [P3H4_Y181] | 0.407 | 0.977 | 0.705 | 0.445 | 0.642 | 0.802 | 0.564 | 0.683 | 0.492 | 0.715 | 0.493 | 0.781 | 0.71 | 2.21 | 1.38 | 1.03
5 | KTTILYKLKLG [ARF1_Y35] | 0.358 | 0.376 | 0.41 | 0.426 | 0.411 | 1 | 0.719 | 0.404 | 0.336 | 0.909 | 0.401 | 1.01 | 0.688 | 1.33 | 0.865 | 0.973
6 | DKATEYSQYMR [MAX_Y70_I71S] | 0.571 | 0.473 | 0.45 | 0.499 | 0.525 | 0.864 | 0.677 | 0.531 | 0.745 | 0.636 | 0.556 | 0.87 | 0.541 | 0.643 | 0.609 | 0.82
7 | GIVEEYQLPFF [BMPR1A_Y453_YF] | 0.591 | 0.588 | 0.599 | 0.587 | 0.724 | 1.35 | 2.24 | 0.812 | 0.746 | 1.34 | 0.604 | 3.31 | 0.822 | 0.799 | 0.438 | 0.629
8 | QLHEHYKIHKE [NSMAF_Y626] | 0.697 | 0.878 | 0.455 | 0.563 | 0.597 | 0.95 | 0.623 | 0.311 | 0.777 | 0.641 | 0.526 | 0.748 | 0.772 | 0.985 | 0.637 | 0.747
9 | TWNPKYTLRSH [STRN3_Y474] | 0.426 | 0.409 | 0.399 | 0.378 | 0.468 | 0.74 | 0.473 | 0.433 | 0.348 | 0.524 | 0.492 | 0.614 | 0.54 | 1.11 | 0.943 | 0.883
10 | FCRHNYGAVES [HLA-DRB1_Y112_V114A_YF] | 0.359 | 0.439 | 0.674 | 0.42 | 0.555 | 0.826 | 0.83 | 0.471 | 0.527 | 0.856 | 0.441 | 0.628 | 0.604 | 1 | 1.05 | 0.816
11 | GGSDRYGSLRP [MYLK_Y846] | 0.385 | 0.37 | 0.385 | 0.332 | 0.418 | 0.61 | 0.495 | 0.425 | 0.452 | 0.716 | 0.339 | 0.494 | 0.407 | 0.997 | 0.428 | 0.562
12 | FSPCDYQPCLA [TNS1_Y798_Y796C_YF] | 0.581 | 0.49 | 11.6 | 0.539 | 6.05 | 1.11 | 0.996 | 2.38 | 1.42 | 1.05 | 0.659 | 1.84 | 1.58 | 0.883 | 0.837 | 0.843
13 | TLKDVCDDGKY [RPS6KA3_Y483_Y483C] | 0.434 | 0.437 | 0.569 | 0.456 | 0.624 | 1.2 | 0.664 | 0.53 | 0.507 | 0.841 | 0.622 | 0.93 | 0.594 | 1.05 | 0.594 | 0.851
14 | GIMEEYQLPYY [BMPR1A_Y453_V450M] | 1.4 | 0.398 | 0.748 | 0.942 | 0.795 | 1.4 | 1.25 | 2.23 | 3.76 | 1.28 | 0.998 | 5.83 | 1.57 | 0.845 | 5.46 | 0.44
15 | PYSNSYENSLI [EPOR_Y489_P488S] | 0.699 | 0.552 | 0.713 | 0.754 | 0.433 | 1.41 | 1.06 | 1.04 | 0.689 | 0.903 | 0.887 | 1.32 | 0.854 | 18.4 | 4.51 | 0.735
16 | FETNVYVDKNL [PTCHD3_Y688_K685T] | 0.54 | 0.411 | 0.546 | 0.482 | 0.539 | 0.938 | 1.01 | 0.436 | 0.36 | 0.53 | 0.578 | 0.996 | 0.623 | 0.968 | 0.693 | 0.656
